Test results published in patent US20030143192A1 (Human Genome Sciences, published 2003).

T1: human CCR3 (human, UniProt P51677 1-355)
T1 construct: whole, on cells; also called chemokine receptor-3; hCCR3
T1 sequence (looked up): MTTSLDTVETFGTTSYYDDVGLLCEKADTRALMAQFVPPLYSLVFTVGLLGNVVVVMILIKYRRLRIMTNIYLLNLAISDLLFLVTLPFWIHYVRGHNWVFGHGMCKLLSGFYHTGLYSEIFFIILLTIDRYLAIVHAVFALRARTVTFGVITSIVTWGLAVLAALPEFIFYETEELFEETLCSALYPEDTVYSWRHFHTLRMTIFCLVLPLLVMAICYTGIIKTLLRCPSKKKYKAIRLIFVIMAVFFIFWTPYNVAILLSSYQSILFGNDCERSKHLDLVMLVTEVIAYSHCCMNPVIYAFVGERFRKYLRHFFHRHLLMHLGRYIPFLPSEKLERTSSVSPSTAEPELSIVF

T2: human D6 chemokine receptor (human, UniProt O00590 1-384)
T2 construct: whole, on cells
T2 sequence (looked up): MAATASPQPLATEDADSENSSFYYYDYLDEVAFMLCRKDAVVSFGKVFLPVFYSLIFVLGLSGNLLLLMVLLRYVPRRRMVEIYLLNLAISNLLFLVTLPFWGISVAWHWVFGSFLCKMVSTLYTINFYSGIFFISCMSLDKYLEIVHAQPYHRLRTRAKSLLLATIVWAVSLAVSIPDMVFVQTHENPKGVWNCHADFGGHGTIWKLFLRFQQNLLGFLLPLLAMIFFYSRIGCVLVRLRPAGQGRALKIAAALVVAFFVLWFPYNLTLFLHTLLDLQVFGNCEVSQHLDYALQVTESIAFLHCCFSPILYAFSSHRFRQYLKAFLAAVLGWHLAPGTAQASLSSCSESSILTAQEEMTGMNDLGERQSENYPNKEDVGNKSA


Assays:
human CCR3 [1] = molecular target: T1, human CCR3; experiment: displacement of 0.1 nM 125I-MCP4 from purified human eosinophils (CCR3)
Method: (§1) After washing with binding buffer containing 0.5M NaCl, the percentage of radio-iodinated ligand remaining bound was calculated compared to assays in which no unlabeled chemokine was added. Each point is the mean of three identical incubations and standard error is included. (C) 2×10⁵ purified eosinophils were incubated for 2 hrs at room temperature in azide-containing binding buffer with 45 nM ¹²⁵I-Met-Ckβ7* plus 500 nM of the various unlabeled chemokines indicated at the bottom of the graph. Cells were washed twice with PBS and remaining ¹²⁵I-Met-Ckβ7* bound was counted. Results are the mean of three identical incubations represented as a percentage of the binding seen in the absence of competitor, and standard error is included.
(§2) Eosinophil ¹²⁵I-Chemokine Binding Assay. 2×10⁵ purified eosinophils were placed in each well of a 96 well plate in binding buffer (1 mM CaCl₂, 5 mM MgCl₂, 0.5% BSA, 0.05% sodium azide, 50 mM Hepes (pH 7.5)). Iodinated chemokine (final concentration of 0.1 nM ¹²⁵I-eotaxin or ¹²⁵I-MCP4, specific activity 2200 Ci/mmol (NEN, Boston, Mass.)) was added in the absence or presence of unlabeled chemokines to a final volume of 100 μl. […] The plates were dried and counted after addition of 50 μl of liquid scintillant in each well. […] Cells were then washed twice with ice cold PBS and counted in a Beckman Gamma 5500B counter. […]

[2] = molecular target: T2, human D6 chemokine receptor; experiment: displacement of 125I-MIP1α in binding assays on CHO cells expressing D6 (not shown)
human CCR3 [3] = molecular target: T1, human CCR3; experiment: displacement of 0.1 nM 125I-eotaxin from 2x10^5 purified human eosinophils (CCR3), 60 min at room temperature
Method: as §1, §2

human CCR3 [4] = molecular target: T1, human CCR3; experiment: displacement of 0.1 nM 125I-eotaxin from purified human eosinophils (CCR3)
Method: as §1, §2

human CCR3 [5] = molecular target: T1, human CCR3; experiment: homologous displacement of 0.1 nM 125I-MCP4 from purified human eosinophils (CCR3)
Method: as §1, §2

human CCR3 [6] = molecular target: T1, human CCR3; experiment: homologous displacement of 0.1 nM 125I-eotaxin from purified human eosinophils (CCR3)
Method: as §1, §2

eotaxin, sequence (P51671 24-97 limits assumed): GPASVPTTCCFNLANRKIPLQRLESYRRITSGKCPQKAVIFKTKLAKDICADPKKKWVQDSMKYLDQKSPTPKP

Row | IC50 (human CCR3 [1]) [nM] | binding result [2] | IC50 (human CCR3 [3]) [nM] | IC50 (human CCR3 [4]) [nM] | IC50 (human CCR3 [5]) [nM] | IC50 (human CCR3 [6]) [nM] | Binder
1 | ~5 | no binding (tested: 700 nM) | ~6 | – | – | – | Met-Ckβ7* (ligand, E. coli-produced modified form of Ckβ7/MIP4: signal peptide removed, N-terminal Ala of the mature protein replaced by Met, C-terminus LKLMPEA; also called Met-22-87-Met-Pro-Glu-Ala; hg00701-e2) MQVGTNKELCCLVYTSWQIPQKFIVDYSETSPQCPKPGVILLTKRGRQICADPNKKWVQKYISDLKLMPEA
2 | – | – | – | ~60 | ~25 | – | MCP4 (ligand, also called monocyte chemotactic protein-4; Ckβ-10) not shown
3 | ~5 | – | – | – | – | ~10 | eotaxin (ligand, also called human eotaxin) not shown
